Usually Ki stands for a dissociation constant, usually derived from enzyme kinetics or from competition with a known ligand.

For the assay, the target named is Sushi domains (SD1/2) protein of the GABAB1a (GB1a) subunit, recombinant. The assay can be described thus: FP competition.
Chain of Sushi domains (SD1/2) protein of the GABAB1a (GB1a) subunit, recombinant (Q9Z0U4 29-158): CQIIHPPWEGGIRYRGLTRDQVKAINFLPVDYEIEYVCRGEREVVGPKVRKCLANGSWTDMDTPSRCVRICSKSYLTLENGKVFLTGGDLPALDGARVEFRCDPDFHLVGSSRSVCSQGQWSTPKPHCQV
On to Ac-EFIAWGPTGDED-NH2, for which the Ki worked out at 112 nM.

Turning to Ac-VWGPTVSREDG-NH2, the Ki worked out at 1740 nM. Ac-DSDVWWGGADTDYAD-NH2: the Ki amounted to 1500 nM. As for Ac-EDASDVWWGGADTD-NH2, the figure is 1830 nM; as for Ac-PWAIVWGPTVSREDGG-NH2, 561 nM; as for Ac-EEDDSDVWWGGADTDYADGG-NH2, 341 nM.

As to Ac-TETEFIAWGP-NH2, the Ki came to 574 nM. Consider Ac-EEDDSDVWWGGADTDYADGGED-NH2, for which the inhibition constant (Ki) was determined as 356 nM. As for Ac-SSQYPWAIVWGPTVSREDG-NH2, the figure is 29900 nM. Regarding Ac-DDSDVWWGGADTDYAD-NH2, the inhibition constant Ki was found to be 517 nM. Next, Ac-PWAIVWGPTVSREDGGDPNS-NH2: 706 nM; Ac-EEDDSDVWWGGADTD-NH2: 341 nM; Ac-EEDDSDVWWGGAD-NH2: 534 nM.

Regarding Ac-TETEFIAWGPTGDE-NH2, the Ki worked out at 69 nM. Regarding Ac-EEDDSDVWWGGADTDYA-NH2, the Ki is 299 nM.

Take Ac-PWAIVWGPT-NH2: the Ki worked out at 716 nM. Regarding Ac-AIVWGPTVSREDG-NH2, the inhibition constant (Ki) is 5550 nM. As for Ac-PWAIVWGPTVSREDGGDPN-NH2, the figure is 579 nM; as for Ac-TETEFIAW-NH2, 1010 nM. Take Ac-PWAIVW-NH2: the Ki turned out to be 706 nM.

Turning to Ac-EDDSAVWWGGADTD-NH2, the inhibition constant (Ki) came to 3080 nM. For the molecule Ac-TEFIAWGPTGDED-NH2, the Ki was determined as 102 nM.

With Ac-PWAIVWG-NH2, the Ki stood at 579 nM.

Regarding Ac-QYPWAIVWGPTVSREDG-NH2, the Ki worked out at 650 nM. Turning to Ac-TETEFIAWGPTG-NH2, the Ki is 248 nM. Ac-PWAIVWGPTVSREDGGDP-NH2: the Ki is 597 nM.

For the molecule Ac-ADDSDVWWGGADTD-NH2, the Ki was determined as 803 nM.

Consider Ac-PWAIVWGPTVSR-NH2, for which the Ki was 433 nM. For the molecule Ac-SADAEEDDSDVWWGGADTDYAD-NH2, the Ki is 284 nM. Next, Ac-PWAIVWGP-NH2: 597 nM; Ac-EEDDSDVWWGGADTDY-NH2: 301 nM. Turning to Ac-PWAIVWGPTVSRE-NH2, the Ki is 650 nM.

As to Ac-DVWWGGADTDYAD-NH2, the Ki was found to be 6100 nM. Next, Ac-EDDADVWWGGADTD-NH2: 660 nM; Ac-DSADAEEDDSDVWWGGADTDYAD-NH2: 513 nM. Next, Ac-IAWGPTGDED-NH2: 38000 nM; Ac-EEDDSDVWWGGA-NH2: 1020 nM. Next, Ac-TETEFIAWGPTGDEDA-NH2: 36 nM; Ac-ADAEEDDSDVWWGGADTDYAD-NH2: 500 nM. With Ac-PTTETEFIAWGPTGDED-NH2, the Ki amounted to 30 nM. Next, Ac-EEDDSDVWWGGADTDYADG-NH2: 343 nM; Ac-IVWGPTVSREDG-NH2: 15700 nM; Ac-EEDDSDVWWGGADTDYADGGEDK-NH2: 392 nM.

In the case of Ac-DAEEDDSDVWWGGADTDYAD-NH2, the Ki stood at 247 nM.

Ac-PWAIVWGPTV-NH2: the Ki was 561 nM. Take Ac-SQYPWAIVWGPTVSREDG-NH2: the Ki amounted to 762 nM. On to Ac-EDDSDVWWGGADTDYAD-NH2, for which the Ki was 281 nM. Take Ac-EEDDSDVWWG-NH2: the Ki was determined as 12800 nM. As for Ac-TETEFIAWGPTGD-NH2, the Ki stood at 97 nM. Next, Ac-YPWAIVWGPTVSREDG-NH2: 433 nM; Ac-EEDDSDVWWGGADTDYADGGE-NH2: 351 nM; Ac-TETEFIAWGPTGDEDAL-NH2: 47 nM.

Regarding Ac-TETEFIAWG-NH2, the inhibitory constant (Ki) is 2470 nM. For Ac-SDVWWGGADTDYAD-NH2, the Ki came to 2950 nM.

For the molecule Ac-TTETEFIAWGPTGDED-NH2, the Ki amounted to 32 nM.

On to Ac-EEDDSDVWWGGADT-NH2, for which the Ki amounted to 585 nM. As for Ac-EADSDVWWGGADTD-NH2, the figure is 1240 nM. Turning to Ac-PWAIVWGPTVSREDGGD-NH2, the inhibitory constant (Ki) worked out at 716 nM. As for Ac-EEDDSDVWWGG-NH2, the figure is 1750 nM. As for Ac-VWWGGADTDYAD-NH2, the figure is 60800 nM; as for Ac-TETEFIAWGPT-NH2, 236 nM; as for Ac-EEDDSDVWW-NH2, 1790 nM. Turning to Ac-PWAIVWGPTVS-NH2, the Ki was found to be 463 nM. In the case of Ac-FIAWGPTGDED-NH2, the inhibition constant (Ki) was determined as 118 nM.

These data come from patent publication US20260193293A1, “PEPTIDES CAPABLE OF INHIBITING PROTEIN-PROTEIN INTERACTIONS AT GABAB1A SUBUNIT AND USES THEREOF” (UNIVERSITY OF COPENHAGEN, priority 2022, published 2026).
